In patent US7531661B2, “Indane compounds as CCR5 antagonists” (SmithKline Beecham Corporation, priority 2002, dated 2009):

Molecular target: T1, human CCR5 chemokine receptor (Homo sapiens, UniProt P51681)
T1 construct: host or cells: Chinese Hamster Ovary (CHO) cells; membranes prepared from the cell pellet
Assay: CC-Chemokine Receptor-5 Binding by Scintillation Proximity Assay (CCR5 SPA), displacement of 125I-MIP1α
Settings: standards plate, 14-point concentration-response curve in triplicate, starting concentration 1 μM
Experimental: CC-Chemokine Receptor-5 Binding by Scintillation Proximity Assay (CCR5 SPA)
Scintillation Proximity Assay for the Human CC-Chemokine Receptor, CCR-5
This protocol describes a high-throughput screen using SPA binding to identify compounds that inhibit binding of ^125I-MIP1α to the human CCR5 chemokine receptor.
Human CCR5 receptors were expressed in Chinese Hamster Ovary (CHO) cells, registration # 12025. Cells were grown in suspension and a 50 to 80 ml CCR5 cell pellet was prepared. […]
The saturation curve binding experiment is performed by adding varying amounts of [^125I]MIP1α (0-8.5 nM to membranes and beads in concentrations chosen from the optimal protein/bead ratio. The data is analyzed using a non-linear curve-fitting program. The Kd and Bmax are derived from the curve. […]

T1 sequence (P51681 whole entry): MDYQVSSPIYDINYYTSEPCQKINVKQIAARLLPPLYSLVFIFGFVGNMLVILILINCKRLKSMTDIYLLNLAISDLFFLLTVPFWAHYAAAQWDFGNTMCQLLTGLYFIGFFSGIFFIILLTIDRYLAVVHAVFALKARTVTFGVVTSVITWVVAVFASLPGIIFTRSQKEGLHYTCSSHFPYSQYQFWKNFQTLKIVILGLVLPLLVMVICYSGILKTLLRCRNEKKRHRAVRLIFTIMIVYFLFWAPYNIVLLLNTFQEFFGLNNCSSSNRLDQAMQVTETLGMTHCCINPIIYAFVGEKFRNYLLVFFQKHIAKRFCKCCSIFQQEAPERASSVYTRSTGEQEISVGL

- average historical pKi obtained with MIP1α: 7.6
Substance: MIP1α: standard compound of the CCR5 SPA; natural chemokine ligand of CCR5
